Assay results taken from patent publication US20100240080A1.
Each block holds one molecule with its values, some of them ahead of it.

How the values were obtained:
[1] = target: Akt 1 substrate, SEQ ID NO: 59 (…), modified with 7-hydroxycoumarin and 5-FAM; experiment: cell-based or functional assay
[2] = system: T1, Akt 1 substrate, SEQ ID NO: 59 (ARPRAFSVGK), modified with 7-hydroxycoumarin and 5-FAM
T1 sequence: ARPRAFSVGK

[3] = system: T2, SEQ ID NO: 109 (ARPRAFS*VGK), labelled phosphopeptide
T2 sequence: ARPRAFSVGK

[4] = system: T3, SEQ ID NO: 113 (RPRTFSS*LAEGK), labelled phosphopeptide
T3 sequence: RPRTFSSLAEGK

[5] = system: T4, SEQ ID NO: 110 (RRRQFS*LRRKAK), labelled phosphopeptide
T4 sequence: RRRQFSLRRKAK

[6] = system: T5, SEQ ID NO: 103 (GDQDYLS*LDK), labelled phosphopeptide
T5 sequence: GDQDYLSLDK

[7] = target: Abl 1 substrate, SEQ ID NO: 3 (…), modified with 7-hydroxycoumarin and 5-FAM; experiment: cell-based or functional assay
[8] = system: T6, SEQ ID NO: 100 (RGGLFS*TTPGGTK), labelled phosphopeptide
T6 sequence: RGGLFSTTPGGTK

[9] = system: T7, SEQ ID NO: 47 (ALRRFSLGEK), modified as described
T7 sequence: ALRRFSLGEK

[10] = target: T8, SEQ ID NO: 31 (EEEIY*GVIEK), labelled phosphopeptide
T8 chain: EEEIYGVIEK

% of substrate phosphorylated in the 0% inhibition control (42 ng Akt 1/well, 10.5 µM ATP) [1]: 30%
Molecule: Akt 1 kinase (from UniProt P31749 1-480) (enzyme)

Molecule: Akt 1 kinase
% Phosphorylation at 5.0 ng Akt 1 kinase per well [2]: 8% | % Phosphorylation at 10.0 ng Akt 1 kinase per well [2]: 12% | % Phosphorylation at 25.0 ng Akt 1 kinase per well [2]: 20% | % Phosphorylation at 37.5 ng Akt 1 kinase per well [2]: 28% | % Phosphorylation at 42.0 ng Akt 1 kinase per well [2]: 30% | % Phosphorylation at 50.0 ng Akt 1 kinase per well [2]: 33% | % Phosphorylation at 75.0 ng Akt 1 kinase per well [2]: 38% | % Phosphorylation at 100.0 ng Akt 1 kinase per well [2]: 43% | % Phosphorylation at 150.0 ng Akt 1 kinase per well [2]: 50%

Molecule: PP2A
phosphatase substrate screen (dephosphorylation, FRET/chymotrypsin read-out) [3]: SEQ ID NOs: 103, 109, 110, and 113 were substrates of PP2A | phosphatase substrate screen (dephosphorylation, FRET/chymotrypsin read-out) [4]: SEQ ID NOs: 103, 109, 110, and 113 were substrates of PP2A | phosphatase substrate screen (dephosphorylation, FRET/chymotrypsin read-out) [5]: SEQ ID NOs: 103, 109, 110, and 113 were substrates of PP2A | phosphatase substrate screen (dephosphorylation, FRET/chymotrypsin read-out) [6]: SEQ ID NOs: 103, 109, 110, and 113 were substrates of PP2A

% of substrate phosphorylated in the 0% inhibition control (1.5 ng Abl 1/well, 10 µM ATP) [7]: 30%
Molecule: Abl 1 kinase (from UniProt P00519 1-1130) (enzyme)

Molecule: PP2B
phosphatase substrate screen (dephosphorylation, FRET/chymotrypsin read-out) [5]: SEQ ID NOs: 100 and 110 were substrates of PP2B | phosphatase substrate screen (dephosphorylation, FRET/chymotrypsin read-out) [8]: SEQ ID NOs: 100 and 110 were substrates of PP2B

Molecule: PKA
% phosphorylation by PKA (kinase titration, FRET/chymotrypsin read-out) [9]: SEQ ID NO: 47 modified as described, is the best substrate for the kinase because it yielded maximal phosphorylation even at low kinase concentrations

Molecule: PP2C
phosphatase substrate screen (dephosphorylation, FRET/chymotrypsin read-out) [3]: SEQ ID NOs: 100, 109, and 110 were substrates of PP2C | phosphatase substrate screen (dephosphorylation, FRET/chymotrypsin read-out) [5]: SEQ ID NOs: 100, 109, and 110 were substrates of PP2C | phosphatase substrate screen (dephosphorylation, FRET/chymotrypsin read-out) [8]: SEQ ID NOs: 100, 109, and 110 were substrates of PP2C

B1: PTP1B (protein)
chain: MEMEKEFEQIDKSGSWAAIYQDIRHEASDFPCRVAKLPKNKNRNRYRDVSPFDHSRIKLHQEDNDYINASLIKMEEAQRSYILTQGPLPNTCGHFWEMVWEQKSRGVVMLNRVMEKGSLKCAQYWPQKEEKEMIFEDTNLKLTLISEDIKSYYTVRQLELENLTTQETREILHFHYTTWPDFGVPESPASFLNFLFKVRESGSLSPEHGPVVVHCSAGIGRSGTFCLADTCLLLMDKRKDPSSVDIKKVLLEMRKFRMGLIQTADQLRFSYLAVIEGAKFIMGDSSVQDQWKELSHEDLEPPPEHIPPPPRPPKRILEPHN
phosphatase substrate screen (dephosphorylation, FRET/chymotrypsin read-out) [10]: SEQ ID NO: 31 was a substrate for both PTP1B and LAR

B2: LAR (protein)
chain: KRKRTHSPSSKDEQSIGLKDSLLAHSSDPVEMRRLNYQTPGMRDHPPIPITDLADNIERLKANDGLKFSQEYESIDPGQQFTWENSNLEVNKPKNRYANVIAYDHSRVILTSIDGVPGSDYINANYIDGYRKQNAYIATQGPLPETMGDFWRMVWEQRTATVVMMTRLEEKSRVKCDQYWPARGTETCGLIQVTLLDTVELATYTVRTFALHKSGSSEKRELRQFQFMAWPDHGVPEYPTPILAFLRRVKACNPLDAGPMVVHCSAGVGRTGCFIVIDAMLERMKHEKTVDIYGHVTCMRSQRNYMVQTEDQYVFIHEALLEAATCGHTEVPARNLYAH
phosphatase substrate screen (dephosphorylation, FRET/chymotrypsin read-out) [10]: SEQ ID NO: 31 was a substrate for both PTP1B and LAR
